Experiment: soluble on expression in E. coli; label from the status in PepcDB or PDB records

Sequence | soluble on expression in E. coli
IVMQFPREEYFAPGHRGCAGCGAAIVARLLLKVAGKDTIITNATGCLEVMTTPYPETSWRVPWIHTAFENAAATASGIEAAVKALKRKRGKFADKKINVIAIGGDGGTADIGFQALSGAMERGHDILYIMYDNEAYMNTGIQRSSSTPFMAATTTSPAGSKIRGEDRPKKDMTMIMAAHGIPYVATACISYPEDFMRKVKKALSIEGPKFIQVLQPCTTGWGYPPEKTIEIGRLAVETGIFPLYEIENGEFRITYKPAKRKPVREYLKMQKRYRHLTDEDIERIQKYIDEKCKLLGL | not soluble
SNAMKTEKDKMLAGEMYIADDEELVADRVEAKRLTRLYNEAVETGDERRFTLLNQLLGSSADGKAQINPDFRCDYGYNIHVGKSFFANFNCVILDVCEVRIGDHCMFAPGVHIYTATHPLHPVERNSGKEYGKPVKIGNNVWVGGGAIINPGVSIGDNAVIASGAVVTKDVPNNVVVGGNPAKVIKTIEE | soluble
MNCGPPPTLSFAAPMDITLTETRFKTGTTLKYTCLPGYVRSHSTQTLTCNSDGEWVYNTFCIYKRCRHPGELRNGQVEIKTDLSFGSQIEFSCSEGFFLIGSTTSRCEVQDRGVGWSHPLPQCEILEHHHHHH | soluble
MDKFKGAVMVGALRLFALLPWRAVQWVGTAIGWLMWKLPNRSREVARINLSKCFPELSEPELEKLVGRSLMDIGKTLTESACAWIWPAQKSINLVREVEGLEVLKDALASGKGVVGITSHLGNWEVLNHFYCSQCKPIIFYRPPKLKAVDDLLRKQRVQLGNRVAASTKEGILSVIKEVRKGGSVGIPADPEPAESAGIFVPFCGTQALTSKFVPNMLAGGKAVGVFLHAMRLPDGSGYKVVLEAAPEAMYSTDTQTSAAAMSKVVEKYVRAYPSQYMWTMKRFKK | not soluble
RGSHMCDAFVGTWKLVSSENFDDYMKEVGVGFATRKVAGMAKPNMIISVNGDVITIKSESTFKNTEISFILGQEFDEVTADDRKVKSTITLDGGVLVHVQKWDGKSTTIKRKREDDKLVVECVMKGVTSTRVYERA | soluble
MGDEVGRGHFGYTCAAKIKKGARKGDAVAVKVIPKAKMTTSIAIEDVRREVKILKALAGHKNLVQFYDAYEDNDNVYIVMELCEGGELLDRILSRGGKYSEDDAKAVLVQILNVVSFCHIQGVVHRDLKPENFLFTSKDENSQLKAIDFGLSDFVKPDERLNDIVGSAYYVAPEVLHRCYSTEADVWSIGVIAYILLCGSRPFWARTESGIFRSVLKADPSYNEAPWPSLTLEAMDFVKRLLCKDPRRRMTAAQALSHPWIRNYNDIKLPLDILIFRLIKAYIRSSSLRKAALRALSKTLTVDELFYLKGQFSLLEPDRNGCITLDNIRMALTREATYAMKESRVQEILVSLSALQYRRMDFQEFCAAAVSVHQLEALDRWEQHARSAYDFFEKDGNRAIVIDELASELGLSPSVPLHVVLQDWIRHTDGKLSFLGFVKLLHGMSSRSLSKMR | not soluble
MSLGPIIMGQSLKAGIFFRIVTGSASMSSDRADGSSVTYSSNRSGNPDLRLIHYNDVYHVEPGSAEPVGGAPRFQSVINHYRSHPSFDGQPTPLTFFSGDAFNPSLESTVTKGRHMVPFLNKAGTNVACVGNHDLDFGVAQFRHLRNQCQFPWLLANVLDPALGEDVPIANCEKTCMLTSSNGIKVGVIGLGEREWLGTINSLPPDLIYKSASKTAIELVPSLREQGAELIVAVTHQREPNDYKLAESIPYGMIDIILGGHDHFYGHAFLNGVHILRSGTDFKQLSYIEAFRKTDGRGWDFNIVRREGHHHHHH | soluble
MSLSFYERYLEYKNFDFENFFDQVTDRDIINIINKDRRLSELEFLMLLSKKAVKYLEPLAQKANRITVQNFGKVIFLYTPMYLANYCVNQCIYCGFNITNNIKRRKLTLDEVEKEAYAISSTGLRHILILTGESRKESPVQYIKDCVKILQKYFRSISIEVYPLEENEYAELIEAGVDGLTIYQEVYDEEKYKALHLKGPKRNYLYRLDAPERACKASMRNVNIGALLGLHDWRTEAFYTGLHADYLQNKYPDVEIGLSLPRIRPHPCGSFVPDCKVEDRDLVQIMIAYRLFMPRAGIAISTRERESLRNNLIGLGVTKMSAASSTEVGGHTLGDKSDGQFDVNDRRGVEEMRQMIYSKGYQPVFKDWQAEGHHHHHH | soluble
MSLRKKIAAFGEVMMRLQVPGYELLSQANTLNYSFSGTGVNVVAALSHLGHEGLLISTLPENSVGDAAVSYIQKLGIQTSLVSRGGKYVGMYFLENGFGARASRVTYSNRLESSFNTASEEIYQFEEIAKEIDIVHFCGITLAMNDTVRHHMKSLARAVKENGGTVVFDCNYRPSLWGEDGYEQAKPHYEEMLGLADIVMMNEKDAMFVLGIKTEETEREAQLVDLIPKVAETYHIATIAGTHRSINSDNTHSLRGFICKDGTFTFAKTLTFSVYDRIGAGDAYTSGIIHGEIKEFAPEKAVSFASAAGMLAHTIVGDTPMSSEKDILRAMTASVGDVEREGHHHHHH | soluble
MGSDKIHHHHHHMKTNIVDVFCIIDDFSKLFDETIKKKTLEEADKKCRNRKFKMSDSEVMTILILFHLSRYRDLKAFYLQYITHSCRSEFPHLVSYNRFVELQSRGGGKLIAFLNMCCLGQCTGISFIDSTPLKVCHIKRAHGHRTMRGWAQKGKSTMGWFYGFKLHIVINDRGEIINYQITPGNCDDREPLKDGTFTKNLFGKLIADRGYISQNLFDRLFVDDIHMITKIKKNMKNSLMHLYDKVLLRKRALIETVNDILKNLCRIEHTRHRSVNNFVTNLISGIIAYNILPKKPELNIEIIRNPNFPISA | not soluble
MDKPQEECGILGLWSEGPVDVAGLLHLGLLALQHRGQEAAGMAVTDGKAFLVEKDLGLVNQVFTEERLGKLRLPEARLGIAHTRYSTTGSNLRINAQPLTARTAHGVLAIAHNGNFTNAKLLRDRLLLEGATFQSTSDTEVMLLLLARMGHLPLPEAAAQAMRLLQGGYSILLMNRKTLLALRDPHGVRPLVLGKAPWGYAFASEPPALLLMGAEYVRDVRPGEVVWVEEGRLQSLQALPPEPAPCAFEWIYFARPDSVLDGTEAYEARVRMGMELFREAPAEADLVVPVPDSGIGAAVGYAKASGLPLEFGLYKNPYAGRTFIQPTQELRDLKTRLKLSPTGAVKGKRVVLVDDSIVRGTTSRRIVRMLKEAGALEVHFRVSSPPIRFPCYYGIDTAARKELIAAEKSVEEIQAYIGADSLAFLSEEGVKRAIGRPVCLACFNGRYPAGVPEEGEKLALELL | soluble
MMYQVKGYFSSLKGSYYEIGKQQGEFVKQNPYLIPQFIHEENVISNNHWTESRNILNKHCPGINEEIEGFCEVLKIPSKNMMYYYQTLLKAGCSHCAVLPKKTDLEHTYVLRNYDLSPVIDDMRFCSTHVEGAYAHSGFSTQYFGRTEGINEHGLAVTFSACGQPVGNIAGLRKPMVSGLQCFAVIRLLLEKCKNVQEAKLLIEEIPIASNINLIIADPLNAAYIEIFDGHKSTITIDGEKQAFIVSTNHAVSSSIQKLNNRKLEQSTKRYHLLHEHLNRCEQVSIESLKKLVEEEYPAGLTVHNYEEWFGTLHSVLFDLHDRTMKICFGSPLLNDWYSLKVGGSMPFSEVNVNFKNKTYTDFWKEDKNELIPKRLEHHHHHH | soluble
MGSDKIHHHHHHMLLAPEDKLNERRAEYPGIEVHPLKFCSSELQAGHWKFLMGAIGNQAAYIRQLGNIMRKNRNNLSIQAIRDGIQNSSLSDSLKDLADMRLDFAEQYIDDQLNVGSLIRPGRMIVVDVRDEFIEKDEALGLFVVLLQIFSEAKYQGQSFNKLIVFDECHKYIDSPDLVKGLVETVREMRHKGTSVMIASQDPPSVPIELIQLSSQIILHKFNAPDWLKHIQKACIGLKSLTPEKLGALKPGEAFIWSSKASDNAFVSDAMKIQCRPRVTKHGGDTLTAI | not soluble
MGSDKIHHHHHHMKVLHIFPSAFLGGSELCAIESIESLQKTGVENHVILPAEGAVINRLENLSVSYKIIQHNWWMSSKPWKTYLKVFMLKGFYSSAASIREYIKNNGIDVVITHSIVIPSGALGARLTNTPHVWYLHEYGDLDHQLKFEYGKSFSLNLINKLSKKIIVNSDALKKHFSKKLPAAKINRLYYSVNYPEFTPLTEKPSGELLLCMVGRIAKGKNQLVALKALALLKQEQIFPQLVFVGGADPDYLKLLEAYIKTHELEKQIAFAGQTDRPWDFVMRSQAVVVGSAMEAFGRVTVEAMKAGRIPIVSDTGAGPELITHNENGFLFDPEKEKQLAEIIKQIWLGTDFTEMTVQAKQYALAHFNSKLHGHELLKILTGLV | not soluble
MGSDKIHHHHHHMPTIVFVGAGSVRYTIKLVGDLAKTPDLYGSRLVLMDIDEERLKATYILVTKYLRELNAEYTVEQTTSLEEALEGADFVINTALYRAPGHEDGYVHYEIMREVGERHGYYRGIDSQELNMVSDYYTLSNYNHLKMSLDIAKAVEKIAPNAWILQTANPVFEITQLVKRLTKAKIVGFCHGYAHVFHLAKVLGVEPEELDWQVAGVNHAIWMNRFRCRGEDLYPKLDEWIEENASRWEPKNPWDVDFSPAAIDMYRFYGMYPIGDTVRSGTWKYHYDLETKKRWYGKFGGIDNEVERPKFYESLREQRKRLMELAKEVEKDPTIELTKVWPEVFTTGSESVEQHIPFINALVNDKKARLVLNVENRGVIKGIPDDVMVEVPVVVDKEGIHPEKIEPDLTDRIKKFYLLPRILRMEWALEAFISGDRRVLEEILVRDPRTRSYEQAVAVIDDILNLPFNEEMKKHYGS | not soluble
GSSHHHHHHSSGLVPRGSHMRGQRGEVEQMKSCLRVLSQPMPPTAGEAEQAADQQEREGALELLADLCENMDNAADFCQLSGMHLLVGRYLEAGAAGLRWRAAQLIGTCSQNVAAIQEQVLGLGALRKLLRLLDRDACDTVRVKALFAISCLVREQEAGLLQFLRLDGFSVLMRAMQQQVQKLKVKSAFLLQNLLVGHPEHKGTLCSMGMVQQLVALVRTEHSPFHEHVLGALCSLVTDFPQGVRECREPELGLEELLRHRCQLLQQHEEYQEELEFCEKLLQTCFSSPADDSMDR | soluble
MGHHHHHHSHRSQPVHILAVRRLQEEDQQFRTSSLPAIPNPFPELCGPGSPPVLTPGSLPPSQAAAKQDVKVFSEDGTSKVVEILADMTARDLCQLLVYKSHCVDDNSWTLVEHHPHLGLERCLEDHELVVQVESTMASESKFLFRKNYAKYEFF | not soluble
MSKQDEVIVVGKFGASYGIRGWLKVVSFTDQPESIFDYKPWLIQVKGEWVEFSVESWKRHKGLVCKLKGLDVREEAQTYTNLEIAVKADALPELSEDEFYWRELFGMEVVTTKGYALGVVDDIFETGSNDVLVVKANLKDAFGKKERLIPFIDEQVIKLIDREAQRIEVDWDPGFLEHHHHHH | soluble
MGSDKIHHHHHHMMRLLCFIDYLGSGGAQRQLTFLARHLKKSGVDVEVLTYHESDFFIPVLAEAGINVETVRGGGRFTKVFSLRKSIRARKFDVLLAFLNAPALYAEIAALPRRRWGLVVSERLAVPGSSMGFARFRRYLHGLADYVTTNSHTNRLLIEKAVPGLTGKVVTIYNALDLEYFSPLQGPVPAGDGRLRFVVLASHQLKKNLLGLVEAAHQVVQAAPELDFTIEWFGRFDAGKNGPGDTGPFEQAKRRIETFRIQDRFIFSEPTSDVAAVYRRADALILPSFYEGLPNVVCEAMACGRPVLMSNVCDAENLVREGDNGFLFDPRDPADMARAILRFAALSGDDRKLMGEKSRKRAVILFNPERFAAHYRRVLESAMRREQTIIPHWCESIPQSAIRMIENEK | not soluble
SNAMTQSPIFLTPVFKEKIWGGTALRDRFGYSIPSESTGECWAISAHPKGPSTVANGPYKGKTLIELWEEHREVFGGVEGDRFPLLTKLLDVKEDTSIKVHPDDYYAGENEEGELGKTECWYIIDCKENAEIIYGHTARSKTELVTMINSGDWEGLLRRIKIKPGDFYYVPSGTLHALCKGALVLETQQNSDATYRVYDYDRLDSNGSPRELHFAKAVNAATVPHVDGYIDESTESRKGITIKTFVQGEYFSVYKWDINGEAEMAQDESFLICSVIEGSGLLKYEDKTCPLKKGDHFILPAQMPDFTIKGTCTLIVSHI | soluble
